Measurements reported in paper PMC10024333 (Iranian Journal of Pharmaceutical Research : IJPR, 2022).

Target: T1, Trx-CD20 (thioredoxin-tagged CD20/G4S cassette: Trx, ECL1, (G4S)3 linker, ECL2, C-terminal His-tag) (Homo sapiens, UniProt P11836)
T1 chain: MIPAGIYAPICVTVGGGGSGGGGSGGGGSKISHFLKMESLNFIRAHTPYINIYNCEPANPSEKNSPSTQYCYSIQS
Test: ELISA

B1: Zytux (rituximab, Aryogen Pharmed, Iran) (antibody, V domains shown)
VH: QVQLQQPGAELVKPGASVKMSCKASGYTFTSYNMHWVKQTPGRGLEWIGAIYPGNGDTSYNQKFKGKATLTADKSSSTAYMQLSSLTSEDSAVYYCARSTYYGGDWYFNVWGAGTTVTVSA
VL: QIVLSQSPAILSASPGEKVTMTCRASSSVSYIHWFQQKPGSSPKPWIYATSNLASGVPVRFSGSGSGTSYSLTISRVEAEDAATYYCQQWTSNPPTFGGGTKLEIK
Ka: 2.66e+12 M⁻¹
